Results from paper PMC8280134, “Broadly cross-reactive human antibodies that inhibit genogroup I and II noroviruses” (Nature Communications, 2021).

Columns and labels:
Test in all cases: ELISA; indirect ELISA; VLP coated at 1 µg/mL on 384-well plates at 4 °C overnight, blocked with 5% nonfat dry milk in PBS with 0.05% Tween-20; mAb normalised for antigen-binding sites, from 500 nM with 11 serial dilutions; detection with anti-κ or -λ secondary antibodies
Conditions in all cases: both partners purified
[1] = target: T1, HuNoV GII.6 virus-like particle (Norwalk-like virus …, UniProt Q918A7, strain)
T1 construct: also called GII.6 VLP

[2] = target: T2, HuNoV GII.13 virus-like particle (Norovirus Hu/GII.13/VA173/2010/USA, strain)
T2 construct: also called GII.13 VLP
T2 chain: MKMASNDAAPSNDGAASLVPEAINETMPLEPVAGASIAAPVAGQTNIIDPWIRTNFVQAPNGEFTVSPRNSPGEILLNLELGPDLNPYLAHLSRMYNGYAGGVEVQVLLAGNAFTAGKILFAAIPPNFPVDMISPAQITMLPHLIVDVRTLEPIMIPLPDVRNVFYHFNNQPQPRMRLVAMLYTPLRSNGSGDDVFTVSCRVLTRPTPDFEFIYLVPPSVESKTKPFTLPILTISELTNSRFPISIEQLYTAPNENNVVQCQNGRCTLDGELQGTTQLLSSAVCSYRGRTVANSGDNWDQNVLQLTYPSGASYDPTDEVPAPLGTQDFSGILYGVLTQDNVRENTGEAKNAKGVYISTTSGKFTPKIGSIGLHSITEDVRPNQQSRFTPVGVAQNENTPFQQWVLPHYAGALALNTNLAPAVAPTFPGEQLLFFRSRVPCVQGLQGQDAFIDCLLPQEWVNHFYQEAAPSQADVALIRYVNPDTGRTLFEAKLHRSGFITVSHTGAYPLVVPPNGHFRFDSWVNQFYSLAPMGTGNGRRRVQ

[3] = target: T3, HuNoV GII.3 virus-like particle (Norovirus Hu/GII.3/TCH-104/USA/2002 …, UniProt S4VLU9, strain)
T3 construct: also called GII.3 VLP

[4] = target: T4, HuNoV GII.17 virus-like particle (Norovirus …, strain)
T4 construct: also called GII.17 VLP
T4 chain: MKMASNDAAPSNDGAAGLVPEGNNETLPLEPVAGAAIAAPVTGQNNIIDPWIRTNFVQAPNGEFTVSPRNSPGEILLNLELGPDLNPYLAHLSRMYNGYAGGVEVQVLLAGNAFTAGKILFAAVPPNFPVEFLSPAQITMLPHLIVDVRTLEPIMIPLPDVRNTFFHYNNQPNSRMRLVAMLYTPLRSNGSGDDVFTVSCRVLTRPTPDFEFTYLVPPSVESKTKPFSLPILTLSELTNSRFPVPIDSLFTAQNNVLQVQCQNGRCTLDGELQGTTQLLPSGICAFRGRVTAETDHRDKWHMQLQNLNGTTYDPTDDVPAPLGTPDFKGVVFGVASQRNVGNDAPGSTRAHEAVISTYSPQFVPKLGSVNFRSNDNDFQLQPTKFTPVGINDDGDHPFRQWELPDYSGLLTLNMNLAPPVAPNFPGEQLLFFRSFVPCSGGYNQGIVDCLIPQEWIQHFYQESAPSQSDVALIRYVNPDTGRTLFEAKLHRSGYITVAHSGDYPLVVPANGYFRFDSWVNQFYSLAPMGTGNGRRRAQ

Measured: binding result

B1: NORO-320 IgA (hybridoma-secreted dimeric IgA) (antibody, V domains shown)
VH: QVQLVQSGPEVKKPGSSVKVSCKASGGTVSSYAISWVRQAPGQGLEWMGGIIPIFDTTNYAQKFQGRVTITADESTGTSDMELSSLRSEDTAVYYCARDRVPSYSPSRRFSTKGAMWGKYGMDVWGQGTLVTVSS
VL: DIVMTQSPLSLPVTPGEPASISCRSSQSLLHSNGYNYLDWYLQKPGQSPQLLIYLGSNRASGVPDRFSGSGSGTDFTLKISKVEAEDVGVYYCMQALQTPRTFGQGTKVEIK
notes: also called mAb NORO-320; Hyb dimeric IgA
binds: all assays above
